These results are taken from the supplement of paper PMC10567573.

The series in a line: protein stability index of a GFP-peptide fusion (GPS, HEK-293T) (PSI 1-6); higher = more stable.
[1] abbreviates: treatment: DMSO, c terminus: a fixed tail appended.
[2] abbreviates: treatment: MLN4924 1 uM, 8 h, c terminus: a fixed tail appended.

± gives the standard deviation.
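Also: 24-mer peptide tiles fused after GFP, lentivirally expressed, FACS-sorted into six equal bins by GFP/DsRed ratio, decoded by Illumina sequencing, PSI is the read-weighted mean bin number.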

Regarding PRLVSETAERKQEQKTGTEAEAAD [MFSD9], the protein stability index reads like this: under setting [1], 5.77 ± 0.12; under setting [2], 5.61 ± 0.25.

Regarding VPAGEEEGELGEYRQKLLMFLEIS [VPS39], the protein stability index worked out at 3.39 ± 0.16 under setting [1] and 3.68 ± 0.22 under setting [2].

Regarding DPGHCFAESRELPVRCAGDWLPRG [ALG2], the protein stability index by setting is: under setting [1], 3.1 ± 0.38; under setting [2], 3.05 ± 0.25.

Consider DQLYRRKKDNHALVRETDELRRNH [ELOA2], for which the protein stability index reads like this: under setting [1], 4.53 ± 0.42; under setting [2], 4.48 ± 0.43.

Take HDPLWRRHCKKYWLISEEEKTQKN [FBXO3]: the protein stability index stood at 3.56 ± 0.45 under setting [1] and 3.99 ± 0.34 under setting [2].

Consider NKAAVMVHQLSKKEASRHAIMRSP [CTNNB1], for which the protein stability index was 3.86 ± 0.16 under setting [1] and 3.8 ± 0.2 under setting [2].

As to QGLIRAGKVEAQHILASAPTDRNL [PYCR3], the protein stability index was 3.96 ± 0.16 under setting [1] and 4.07 ± 0.4 under setting [2].

For VLALADEAGYYFFNGNYKVDSPKN [ADAMTSL2], the protein stability index runs as follows: under setting [1], 2.7 ± 0.23; under setting [2], 2.86 ± 0.3.

FDDFVTNLIEKSASLDNGGCALTT [SOAT1] showed a protein stability index under setting [1] of 3.66 ± 0.27 and a protein stability index under setting [2] of 3.62 ± 0.16.

As for KMVSAEISENRKRQWPTKSQTDRG [SDE2], the protein stability index runs as follows: under setting [1], 4.52 ± 0.069; under setting [2], 4.41 ± 0.2.

For the sequence TFNPHKRISAFRALQHSYLHKDEG [CDK4], the protein stability index is, setting by setting: under setting [1], 2.87 ± 0.14; under setting [2], 3.12 ± 0.09.

ILHGTRGELLLDVAWHPVRPIIAS [RBBP5] gave a protein stability index under setting [1] of 2.51 ± 0.33 and a protein stability index under setting [2] of 2.52 ± 0.25.

As for GASSLPTTMNYPLWSQSYEDSSNQ [MAGEA3], the protein stability index by setting is: under setting [1], 4.42 ± 0.11; under setting [2], 4.57 ± 0.15.

As for ACDSKLTFDAITTIRGEVMFFKDR [MMP1], the protein stability index under setting [1] was determined as 2.45 ± 0.24 and the protein stability index under setting [2] amounted to 2.83 ± 0.19.

Turning to QAQPAIPRPNRLFLRQLRASHLGN [C2CD2L], the protein stability index worked out at 3.09 ± 0.33 under setting [1] and 3.08 ± 0.27 under setting [2].

Turning to SRSSILVQHQRVHTGEKPYKCLEC [ZNF24], the protein stability index stood at 3.54 ± 0.19 under setting [1] and 3.65 ± 0.23 under setting [2].

Take FENMSNDDAVRVLREIVHKPGPIT [DVL3]: the protein stability index under setting [1] worked out at 3.65 ± 0.15 and the protein stability index under setting [2] stood at 3.7 ± 0.15.

NEPSQAETAVEGDPSGVSGATVGR [C18orf25]: the protein stability index by setting is: under setting [1], 5.66 ± 0.22; under setting [2], 5.66 ± 0.11.

For the sequence LAQQLCTALLFLATPELSIIHCDL [DYRK1B], the protein stability index was determined as 3.04 ± 0.42 under setting [1] and 3.23 ± 0.42 under setting [2].

With PIYGLRQSILLNTRLQDCYVDSPA [C22orf31], the protein stability index runs as follows: under setting [1], 2.69 ± 0.2; under setting [2], 2.55 ± 0.38.

Consider KFLMARKFDVLRAIELFHSYRETR [PTPN9], for which the protein stability index is, setting by setting: under setting [1], 2.29 ± 0.54; under setting [2], 2.15 ± 0.15.

On to NICENTEGAIAVHCKAGLGRTGTL [CDC14A], for which the protein stability index under setting [1] was found to be 3.13 ± 0.22 and the protein stability index under setting [2] came to 3.21 ± 0.3.

For the sequence AGLAPPSLFARAMQVLVTAISPGR [ANKRD9], the protein stability index came to 2.29 ± 0.1 under setting [1] and 2.29 ± 0.18 under setting [2].

LLLVAKMSVGHLRLLSHDQVAMPY [JAGN1]: the protein stability index reads like this: under setting [1], 3.06 ± 0.46; under setting [2], 2.81 ± 0.21.

For EGHPFKAYLELEITLSQEQIQKYT [RTN1], the protein stability index by setting is: under setting [1], 2.33 ± 0.67; under setting [2], 2.13 ± 0.26.

As to TNNGAGFGLSILWVLLFTPCSFVC [SCAMP3], the protein stability index reads like this: under setting [1], 3.04 ± 0.37; under setting [2], 3.27 ± 0.36.

For YSGGGYYLDLPGSRQGSAEALRAL [PKD2L1], the protein stability index runs as follows: under setting [1], 2.5 ± 0.48; under setting [2], 2.92 ± 0.89.

Take STALERPSFLSQTGHGVSRGPSPV [FCHO1]: the protein stability index runs as follows: under setting [1], 4.1 ± 0.34; under setting [2], 4.28 ± 0.42.

As to LEEMILPLMVASAQSGERECHIVV [BTBD10], the protein stability index runs as follows: under setting [1], 2.35 ± 0.79; under setting [2], 2.48 ± 0.48.

For the sequence FVELQGFLAAEQDIREEIRKVVQS [TSN], the protein stability index runs as follows: under setting [1], 2.21 ± 0.41; under setting [2], 2.48 ± 0.82.

On to VDIVTGHARLSDIWAKTPPITRKA [DHCR7], for which the protein stability index under setting [1] is 3.26 ± 0.093 and the protein stability index under setting [2] worked out at 3.38 ± 0.16.

In the case of ADLENEDIFPELDDILYHVKGMQR [DLC1], the protein stability index is 3.7 ± 0.13 under setting [1] and 3.72 ± 0.34 under setting [2].

In turn, YREESDSLGQDLRRLRQELLKTEA [DAPK3] yielded a protein stability index under setting [1] of 3.85 ± 0.68 and a protein stability index under setting [2] of 3.83 ± 0.31.

Under setting [2], DEPYEKVVDRIQSSGKNVTLLVCG [PDZK1] had a protein stability index of 3.5 ± 0.36.

For AFAEMLRFGDRMFYKDWWNSTSYS [SOAT1], the protein stability index under setting [1] stood at 2.52 ± 0.36 and the protein stability index under setting [2] was 2.58 ± 0.54.

For HDESPGNNVVDISVPPTTDGQKPN [RAB11B], the protein stability index is, setting by setting: under setting [1], 5.46 ± 0.3; under setting [2], 5.57 ± 0.12.

In the case of IIQFVESGDDKNSNYFSMDSMEGK [TRIM29], the protein stability index is 3.46 ± 0.24 under setting [1] and 3.71 ± 0.29 under setting [2].

TAPRTLPSCLACNRQCLCSAESMV [SPRY1] returned a protein stability index under setting [1] of 2.75 ± 0.34 and a protein stability index under setting [2] of 2.59 ± 0.48.

For the sequence CSIGFAVRYLNAYTGIVLLRCRKE [POP5], the protein stability index reads like this: under setting [1], 3.13 ± 0.43; under setting [2], 2.99 ± 0.57.

As to TFVSTCQAIDATVAAELLNHLLES [HES6], the protein stability index is, setting by setting: under setting [1], 2.48 ± 0.35; under setting [2], 2.48 ± 0.32.

Consider THSRMGSIMSTGIVQGSSGAQGSG [CARM1], for which the protein stability index reads like this: under setting [1], 4.48 ± 0.1; under setting [2], 4.26 ± 0.34.

As to SPAPLDTCPSSSTASSISSSGGSS [DYRK1B], the protein stability index runs as follows: under setting [1], 5.33 ± 0.16; under setting [2], 5.35 ± 0.088.

Regarding RNSLSAIFNNVMTLCAMLPLLLFT [SLC29A1], the protein stability index is, setting by setting: under setting [1], 3.3 ± 0.65; under setting [2], 3.33 ± 0.22.

With RDQHPQPSLGDSLESIPSLSQSPE [RTN2], the protein stability index is, setting by setting: under setting [1], 5.44 ± 0.18; under setting [2], 5.55 ± 0.12.

For the sequence DCSDILRLIKELAKYEYMEEQVIL [SAT1], the protein stability index worked out at 1.95 ± 0.51 under setting [1] and 2.23 ± 0.1 under setting [2].

Turning to EKIAAEIAQAEEQARKRQEEREKE [SMARCE1], the protein stability index is, setting by setting: under setting [1], 5.44 ± 0.17; under setting [2], 5.74 ± 0.25.

Take NIVEYLIQEQPGQEQVAGGEAQPG [FEM1A]: the protein stability index under setting [1] amounted to 4.33 ± 0.25 and the protein stability index under setting [2] came to 4.15 ± 0.47.

As for SVSKAQSIYGIPHSTLEYKVKERL [LCOR], the protein stability index reads like this: under setting [1], 3.42 ± 0.43; under setting [2], 3.54 ± 0.13.

With SWAWRGPGVLKVLWLTASQPCSIV [LPCAT4], the protein stability index came to 2.74 ± 1.1 under setting [1] and 2.52 ± 0.84 under setting [2].

For the sequence EKIWRPNRVFSLQDLCCRAIVSCT [RAB40C], the protein stability index under setting [1] was determined as 2.76 ± 0.19 and the protein stability index under setting [2] is 2.88 ± 0.14.

Sequence LTLQVLVAGNPQDTRLRYSFFVPR [ADAMTS4] showed a protein stability index under setting [1] of 3.13 ± 0.4 and a protein stability index under setting [2] of 3.19 ± 0.44.

KRTAQAIEPYITNFFNQVLMLGKT [PDS5B]: the protein stability index under setting [1] came to 1.95 ± 0.24 and the protein stability index under setting [2] is 2.29 ± 0.085.

SRESSKPRAVLKPRRVCVGGKRRR [PPP2R2C]: the protein stability index by setting is: under setting [1], 4.94 ± 0.33; under setting [2], 4.87 ± 0.19.

In the case of LALKLPDGSYALNGEYTLMPSPTD [ADAMTS4], the protein stability index is, setting by setting: under setting [1], 2.35 ± 0.15; under setting [2], 2.41 ± 0.28.

EGATLLLRGLCANTVLRFLDLKGN [LRRC45]: the protein stability index runs as follows: under setting [1], 2.6 ± 0.4; under setting [2], 2.98 ± 0.77.

Consider PWTKEEDQKVIELVKKYGTKQWTL [MYBL2], for which the protein stability index runs as follows: under setting [1], 2.61 ± 0.24; under setting [2], 2.72 ± 0.16.

On to VEYKDIASIHWDWKIALLFVAFAL [SLC35F2], for which the protein stability index worked out at 2.81 ± 0.8 under setting [1] and 2.74 ± 0.32 under setting [2].

Take TDQPPLVQAIFSGDPEEIRMLIHK [ANKRD44]: the protein stability index runs as follows: under setting [1], 3.31 ± 0.28; under setting [2], 3.48 ± 0.3.

Regarding GLSTEAEQPFIPVEVLVDLFLKEG [PRAME], the protein stability index came out at 3.05 ± 0.11 under setting [1] and 3.3 ± 0.33 under setting [2].

For EELNNGEPQTEHQQESESEIDSVP [MIA2], the protein stability index is, setting by setting: under setting [1], 5.6 ± 0.24; under setting [2], 5.52 ± 0.43.

On to TYTHGLGLHRRPGAGHCSASPGPA, for which the protein stability index by setting is: under setting [1], 3.42 ± 0.24; under setting [2], 3.48 ± 0.24.

For the sequence RVPAGIFKHTLSISRALLSDVVPE [MFSD9], the protein stability index by setting is: under setting [1], 2.82 ± 0.74; under setting [2], 3.02 ± 0.22.

The sequence ITYPMLFKLTNKNSDRMTHCGVLE [UFD1] showed a protein stability index under setting [1] of 2.46 ± 0.17 and a protein stability index under setting [2] of 2.43 ± 0.23.

Take AINNLVLQGCSSIGLRLVLEYLYT [KLHL14]: the protein stability index runs as follows: under setting [1], 3.15 ± 0.55; under setting [2], 3.04 ± 0.31.

For EKKDTITNDSLSLKPSWFDFGFAI [MIA2], the protein stability index turned out to be 2.46 ± 0.19 under setting [1] and 2.48 ± 0.19 under setting [2].

Regarding QLHHVVYCFMIAYGTQRTLILESQ [FUT8], the protein stability index reads like this: under setting [1], 3.12 ± 0.55; under setting [2], 3.17 ± 0.36.

The sequence LCGENFSHRSNLIRHQRIHTGEKP [ZNF263] registered a protein stability index under setting [1] of 3.91 ± 0.17 and a protein stability index under setting [2] of 3.72 ± 0.22.

On to QGSPAVDKERFTTLVQDLANAFQQ [CHIT1], for which the protein stability index turned out to be 3.13 ± 0.25 under setting [1] and 3.48 ± 0.22 under setting [2].

In the case of STNLGVNQAGFTLHSAIYAARPDV [ADD1], the protein stability index is, setting by setting: under setting [1], 3.02 ± 0.18; under setting [2], 3.08 ± 0.35.

With GRYVKENCKPLKSYMLQDSLEHVQ [CLK3], the protein stability index by setting is: under setting [1], 3.1 ± 0.23; under setting [2], 3.08 ± 0.48.

As to KKVSKAAILARIKRTGDGNYKSG [SCD], the protein stability index is 2.88 ± 1.2 (treatment: DMSO, c terminus: native) and 3.28 ± 0.21 (treatment: MLN4924 1 uM, 8 h, c terminus: native).

For the sequence SASAKRVWNMTATRPKKMGSQLPK [FATE1], the protein stability index runs as follows: under setting [1], 3.76 ± 0.27; under setting [2], 3.79 ± 0.18.
